In patent US12649778:

Biological target: Peptide 1593 (…) (Mycobacterium tuberculosis)
Assay: SPR (Biacore), IgG amine-coupled, peptide as analyte

B1: 65D3 mutant IgG variant 2 (S55W-VH + S57T-VL) (antibody)
heavy: QSLEESGGRLVTPGGSLTLTCTVSGFSLSTHDISWVRQAPGKGLEWIGVIARRGWTYYASWAKGRFTISKTSTTVDLKITSPTIEDTATYFCAREEFDFWGQGTLVTVSSGQPKAPSVFPLAPCCGDTPSSTVTLGCLVKGYLPEPVTVTWNSGTLTNGVRTFPSVRQSSGLYSLSSVVSVTSSSQPVTCNVAHPATNTKVDKTVAPSTCSKPTCPPPELLGGPSVFIFPPKPKDTLMISRTPEVTCVVVDVSQDDPEVQFTWYINNEQVRTARPPLREQQFNSTIRVVSTLPIAHQDWLRGKEFKCKVHNKALPAPIEKTISKARGQPLEPKVYTMGPPREELSSRSVSLTCMINGFYPSDISVEWEKNGKAEDNYKTTPAVLDSDGSYFLYSKLSVPTSEWQRGDVFTCSVMHEALHNHYTQKSISRSPGK
light: AVLTQTASPVSAAVGGTVTISCQSSQSVYNNKELSWFQQKPGQPPKLLISYASTLATGVPSRFKGSGSGTQFTLTISDLECDDAATYYCLGGYASTIDMWAFGGGTEVVVKGDPVAPTVLIFPPAADQVATGTVTIVCVANKYFPDVTVTWEVDGTTQTTGIENSKTPQNSADCTYNLSSTLTLTSTQYNSHKEYTCKVTQGTTSVVQSFNRGDC
**Q.** With B1 as the binder, how does the Kd read?
**A.** 3.27 nM

**Q.** What about the koff of the same binder?
**A.** 0.000393 s⁻¹

**Q.** And the kon?
**A.** 120000 M⁻¹ s⁻¹
